The values below come from US7176178 (HANSA MEDICAL, dated 2007).

In assay [1] the target is nucleophosmin/B23 (NPM), papain-released material from Jurkat membrane preparations (Mono-Q pool 85-87) (human) (UniProt P06748). Kind of assay: competitive inhibition of the binding of 125I-labelled NPM to protein H-Sepharose by unlabeled fragment AB.
For assay [2], the target named is T1, protein H (COOH-terminally truncated fragment expressed by and purified from E. coli) (Streptococcus pyogenes, UniProt P50470 42-346).
T1 construct: also called recombinant protein H; soluble protein H
T1 sequence: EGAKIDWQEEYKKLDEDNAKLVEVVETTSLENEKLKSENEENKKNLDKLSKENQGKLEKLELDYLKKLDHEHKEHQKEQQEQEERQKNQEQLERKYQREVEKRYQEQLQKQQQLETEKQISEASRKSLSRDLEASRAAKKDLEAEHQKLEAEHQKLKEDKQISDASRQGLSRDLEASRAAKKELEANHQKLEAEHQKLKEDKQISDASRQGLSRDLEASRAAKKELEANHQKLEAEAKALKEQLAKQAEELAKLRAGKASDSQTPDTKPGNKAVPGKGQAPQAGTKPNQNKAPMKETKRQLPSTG
As to the kind of experiment: 35S-labelled in vitro translated peptide applied to protein H-Sepharose, KSCN eluate on SDS-PAGE, autoradiography.

Chain of nucleophosmin/B23 (NPM), papain-released material from Jurkat membrane preparations (Mono-Q pool 85-87) (human) (P06748 1-149 limits assumed): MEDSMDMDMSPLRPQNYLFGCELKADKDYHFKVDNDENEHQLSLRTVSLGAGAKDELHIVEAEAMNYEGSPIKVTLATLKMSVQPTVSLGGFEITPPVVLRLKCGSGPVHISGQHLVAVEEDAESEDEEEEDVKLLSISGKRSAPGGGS

On to fragment AB of protein H (peptide), for which the IC50 (read off the curve) in assay [1] came to 100 pmol.

B1: COOH-terminal fragment of NPM, in vitro translated (peptide)
chain: KVPQKKVKLAADEDDDDDDEEDDDEDDDDDDFDDEEAEEKAPVKKSIRDTPAKNAQKSNQNGKDSKPSSTPRSKGQESFKKQEKTPKTPKGPSSVEDIKAKMQASIEKGGSLPKVEAKFINYVKNCFRMTDQEAIQDLWQWRKSL
notes: domain: COOH-terminal half; also called COOH-terminal peptide; COOH-terminal half of NPM
In the case of B1, the binding result in assay [2] was “no binding”.
